Measurements taken from the DeepSol protein solubility set.

Test: soluble on expression in E. coli; label from the status in PepcDB or PDB records

Row | Sequence | soluble on expression in E. coli
1 | SNAMPSIRYPSTEFPALTGFTVPIPETWQPDPTMGTQFAARPHTPPQGFTPNIIGTVRRAATGALHNQRTELDQRATQLPDYAERGRTETTVDGFPAYHIEYAYRHHGTITIAQMITLVEVSHPHAVDIIQLTATCAGDQTADYWDTFRLMHADLTVQPHG | soluble
2 | MSLEHWNKTFCLEVKGDYACFTRPEMKVERVSYDVITPSAARGIFEAIFWKPAIRWRIRKIEVLNPIKWISVRRNEVGQTASERSDGIFIETARQQRAGLFLRDVAYRLHAELEFVPPSERPDAKRPVPESLQDGRETSELRKDENPGKYYAIFERRARKGQCFNQPYLGCREFSCEFRLVDDLANEPPPISETRNLGFMLYDLDFQKNLKEPPPAFFPACLEKGVIKVPDWESEEVRKEGHHHHHH | soluble
3 | MPIKIPDNLPAKEILTKENIFVMAESRAYSQDIRPLKIVILNLMPIKQTTETQLLRLLGNTPLQVEVSFMYTDTHISKNTSYDHLQTFYQTIDEVKQKKFDGMIITGAPIETLPYDEVDYWNELKQIMEWSKTNVTSTLHICWGAQAGLFYHYGVEKVPLPEKQFGVYPHKINVPNVKLLRGFDDEFYVPHSRHTDINKAQIEAHPDLEILSESEQAGVYIVASKDGKQIFVTGHSEYDACTLQQEYERDRARGLNIQVPENYFPNDDATRKPLLRWRAHSYLLFSNWLNYYVYQETPYDLSRMAGDPLEHHHHHH | soluble
4 | MSLTKEPILELADMSDFEQLIRQHPEKIIILDFYATWCGPCKAIAPLYKELATTHKGIIFCKVDVDEAEDLCSKYDVKMMPTFIFTKNGDAIEALEGCVEDELRQKVLEHVSAQ | not soluble
5 | MSLQIVFPTPNQVEMQTGNLILGKKVSMYAEDTTAFYLNLFREEVLSHTPIKWQKKESKADICWITDSSLPPEGYRIKIHPQQMVISASDKGGFTYAVQTLRQWVAGSAGSITFACASVTDYPRTQWRCFLLDSGRQFQKITTIRKYIDMASLLKMNYFHWHLTEGLGWRIEIKQYPHLTRTGGSVGKGEEQQGFYTQEEIRDIIEYARQRNITIVPEIDMPGHAEAALSAYPELGCFGLPVEIPQSGFTQNIFCAGKDGTLRFLKNVLDEVCALFPSPYIHLGGDEAPKGNWDQCPDCRKRITTEGLKDSHDLQLWFSAQMANYLKSKGRKAIFWGDVVYHDGYPLPDNTVIQWWNYRGHKDLALRNAVKHHYPVICSSNYYTYLNFPVTPWKGYTEARTFDLKDVYLNNPSDKAISEKNPLILGMSCALWTDDGVTERMIDRRLFPRILALSEQMWHEGEALDFDRFYRNILHRKAWFEEAGFEFGPALKEDVTKDYKWDEGHHHHHH | soluble
6 | MGSDKIHHHHHHMKILWITSVYPSSMKPGEGVFHETQVQELQKLGLDITVICPRPFHSAPVRMLKKTYRKKDVRPEYEIRKGIPVYRPFYRAVPGQLKWAQPHRRIASAVLKTMKQRDLYPDLIHAHFAMPSGGAAAVVSESAQIPYVLTLHGSDVNVYPHYSKGAFKAFKRAVGSASVVLAVSHKLQEEAKKLSGFDSSVLPIGIQLSRFQGNEETKEEIRKRLGLPLDQRLAVYVGRLVREKGIFELSEAIESLQDSPKAVFVGDGPAKSTLTQKGHIVTGQVPNHQVRDYLLAADLFVLPSYSEGMPTVVIEALALRVPVICTDVGGVSSLFGKHQHLLIKPKSAQALAEAITRYEHEQIWKPEVADDLYETVQAQFDAGKNAKALHHQYQTVTKTSV | not soluble
7 | MEHTIAVIPGSFDPITYGHLDIIERSTDRFDEIHVCVLKNSKKEGTFSLEERMDLIEQSVKHLPNVKVHQFSGLLVDYCEQVGAKTIIRGLRAVSDFEYELRLTSMNKKLNNEIETLYMMSSTNYSFISSSIVKEVAAYRADISEFVPPYVEKALKKKFK | not soluble
8 | ASVRVVQKNLVFVVGLSQRLADPEVLKRPEYFGKFGKIHKVVINNSTSYAGSQGPSASAYVTYIRSEDALRAIQCVNNVVVDGRTLKASLGTTKYCSY | soluble
9 | MIAAYENSKWEPVKWENDMHCAVKIQDKNQWRRGQIIRMVTDTLVEVLLYDVGVELVVNVDCLRKLEENLKTMGRLSL | soluble
10 | MGRKKKKVDKPWCWYCNREFDDEKILIQHQKAKHFKCHICHKKLFSGPGLSIHCMQVHKETIDKIPAAVHGRDNIHVEIYGMQGIPSGAYRGAADEEPDEKRSRMDNGPPMPTPMPFPQHFPFPGMPPMPSGPPPPSMAYGMPPMPSGMMPPRGMPGAYPPPRGYPPAPAPGVYMPPPGMPGAYPPPRMPIGHGPPGGPPMPGPPQRSRFDQPDGGDRWGPPMRGVPRTPPYENEHEHQDYQAPDDYNQGGYDDRFREGDRGGPPGGSRFDQVKAELKEEIVEPNNGPPTTSSGAAAASAAAVVASKLGSRTRIVYPDDHSLSLEERRVKMLFEKRSNPYH | soluble
11 | MPHIAHRKNGTYDQSGFNCSLFCSFVQKQGCRTMIQLTTPVENPVIRERLISYANKLFFVGSCFSLEVGSYMRQAGFRTEINPFGIMYNPLSIAGCIGRLLDPVPYQAEELFEYDGLFHSFDHHGAFSHAKKEETLQHLNDSLHVGHEALLRSDRLFFTWGTAFVYNYVSANKVVANCHKLPERLFRRQMVGIDDLLAVWIPLIERLLSSSPDRRIILTVSPVRHLRDGAVGNQQSKATLVLFCKALTGRFPEHLYYFPAYEIMMDELRDYRYYADDMTHPSSLAVSIIRERFADIFVEKDHREAMDACLKLRRRMAHRPLHPDSPDAMLFEAQTQTLVSALLRKYPDLVLDDIAGEMES | not soluble
12 | SESQTLDKVYQMKSKPRGYCLIINNHNFAKAREKVPKLHSIRDRNGTHLDAGALTTTFEELHFEIKPHDDCTVEQIYEILKIYQLMDHSNMDCFICCILSHGDKGIIYGTDGQEAPIYELTSQFTGLKCPSLAGKPKVFFIQACQGDNYQKGIPVETASEEQPYLEMALSSPQTRYIPDEADFLLGMATVNNCVSYRNPAEGTWYIQSLCQSLRERCPRGDDILTILTEVNYEVSNKDDKKNMGKQMPQPTFTLRKKLVFPSDVEHHHHHH | soluble
13 | NFMLNQPHSVSESPGKTVTISCTRSSGNIDSNYVQWYQQRPGSAPITVIYEDNQRPSGVPDRFAGSIDRSSNSASLTISGLKTEDEADYYCQSYDARNVVFGGGTRLTVLG | soluble
14 | MGSDKIHHHHHHMFRLAKEELEKLGAMITATEIYQQPGLWKEAHQLYFDQLEKIESFLKSIKEKHDFVHVVFTGAGTSDFVGQSIANYLNQVNDLKHIRFSAIGTVELVSRPHDYLQADLPTILVSFARSGNSPESVAAVEVAKQLVDKLYQVTITCAPEGKLALAAEGDVENLLLLQPAGSNDKGFAMTGSYSCMALTALLVFSPASQEEKAAWVEIIARLGQDVLDREDYVQDLINLDFERVIYLGSGGFYGLAHEAQLKILELTAGKIATMYESPLGFRHGPKSFINEKTLIFLFASNDAYTRQYDVDLLNEVHGDGIAERIVALSADKLVGTEAANFVLAEGGADLPDVFLTFPYILFAQTVSIMAAIKCNNLPDTPSPTGTVNRVVQGVIIHPLEK | not soluble
15 | MKICLIDETGAGDGALSVLAARWGLEHDEDNLMALVLTPEHLELRKRDEPKLGGIFVDFVGGAMAHRRKFGGGRGEAVAKAVGIKGDYLPDVVDATAGLGRDAFVLASVGCRVRMLERNPVVAALLDDGLARGYADAEIGGWLQERLQLIHASSLTALTDITPRPQVVYLDPMFPHKQKSALVKKEMRVFQSLVGPDLDADGLLEPARLLATKRVVVKRPDYAPPLANVATPNAVVTKGHRFDIYAGTPV | not soluble
16 | MGSSHHHHHHSSGLVPRGSHMASAVVQEVSAEAQAPAVVKNPPKLALKIDRADVNQLPRNFRMGSDKYVGVTKTGIMPTRKGMDTMNVSASSCFSEKELEAILKKVPVKPSQFYDVDLRGESHGYLNGTAVSWFANHDWGNDGRTEDIIIPLEKEQLASLKGSTVKSIYRFDDKKNVILSPVYVNYNKVRTEEEMVKQHGANYFRLTLQDHFRPDDPDVDKFLEFYKSLPKDAWLHYHCYAGMGRTTIFMVMHDILKNAKDVSFDDIIQRQKLIGIVDLSEIPDKKKNYGRKAYIERYQFVQHFYDYVKENPDLKTPYSVWAKKNKVNSWEPDYNGYIWRLDTKDRNQLPRNFRTMNSAFRTDVNVKKTGKGFTPTPTRKGLDTLYMSGSAEFSNGELQAMLPVLKQQAKGPIYIMDLRQETHGVFNGNAVSWYGLRDWGNLGKNKAEVLKDENSRLNAARGKSLIVAELDKDKMPIDPKPVKIESVMTEQQLVEKNGLHYYRIAATDHIWPSAANIDEFINFTRTMPANAWLHFHCQAGAGRTTAYMAMYDMMKNPDVSLGDILSRQYLLGGNYVAYEIAKPKPDQWKADYYHQKAHMIEKFYQYVQENHADGFKTSWSQWLAAHQDV | soluble
17 | MRRSKMTYLIGVDCGGTHIVGQTWTTAPEHLVQSVTGGPGNVVLDYSAAVTNLTTVLDQLTAAIPASQLGLILIGIAGIETAGRADQVQQTITQRYHANTQVISDAKLALLNGLAGADGALVIAGTGSVVYGRQAGKFLRVGGWGYVLGDEGSAYDISKRALKQVLTQTDNGQTSQLTAPLLAQLKVTDIAAAVQKFYAQDRQTNAQLAQLIAKLAEQQNSEAITVLVTSAQALAQQVVTLYQRFAESWPQRVALSGSVLQHNRLVRDTLTTTVHQSIPTIAFNDITTNNAHAVIYWHRWTQEEINSLEHHHHHH | not soluble
18 | HHHHHHGSAQLPSPTNGKKWEKVEQLSDEFDGNSIDTNKWYDYHPFWEGRAPSNFKKGDAFVSDGFLNLRSTLRKEPSSVQDPFKDIWVDAAAAVSKTKAQPGYYYEARFMASSLSMTSSFWFRVGQFSSIDVIEHIGDPSKENRQDDLPYQYHVNTHYYGKHAGLQPLGTEYKMPGRGRDNFYTYGFWWKSPNELLFYFNGKQVMRIVPRVPLDEELRMIFDTEVFPFATAGVANIGLPKPENLRDNSKNTMKVDWVRVYKLVDGTA | soluble
19 | MPKISSRDGGRPAQRTVNPIIVTRRGKIARLESGLTPQEAQIEDLVFLRKVLNRADIPYLLIRNHKNRPVLAINIELRAGLERALAAACATEPMYAKTIDEPGLSPVLVATDGLSQLVDPRVVRLYRRRIAPGGFRYGPAFGVELQFWVYEETVIRCPVENSLSRKVLPRNEITPTNVKLYGYKWPTLDGMFAPHASDVVFDIDMVFSWVDGSDPEFRARRMAQMSQYVVGEGDDAEARIRQIDELKYALRSVNMFAPWIRRIFIATDSTPPPWLAEHPKITIVRAEDHFSDRSALPTYNSHAVESQLHHIPGLSEHFLYSNDDMFFGRPLKASMFFSPGGVTRFIEAKTRIGLGANNPARSGFENAARVNRQLLFDRFGQVITRHLEHTAVPLRKSVLIEMEREFPEEFARTAASPFRSDTDISVTNSFYHYYALMTGRAVPQEKAKVLYVDTTSYAGLRLLPKLRKHRGYDFFCLNDGSFPEVPAAQRAERVVSFLERYFPIPAPWEKIAADVSRRDFAVPRTSAPSEGALEHHHHHH | not soluble
20 | MYIGIDLGTSGVKVILLNEQGEVVASQTEKLTVSRPHPLWSEQDPEQWWQATDRAMKALGDQHSLQDVKALGIAGQMHGATLLDAQQRVLRPAILWNDGRCAQECTLLEARVPQSRVITGNLMMPGFTAPKLLWVQRHEPEIFRQIDKVLLPKDYLRLRMTGEFASDMSDAAGTMWLDVAKRDWSDVMLQACDLSRDQMPALYEGSEITGALLPEVAKAWGMATVPVVAGGGDNAAGAVGVGMVDANQAMLSLGTSGVYFAVSEGFLSKPESAVHSFCHALPQRWHLMSVMLSAASCLDWAAKLTGLCNVPALIAAAQQADESAEPVWFLPYLSGERTPHNNPQAKGVFFGLTHQHGPNELARAVLEGVGYALADGMDVVHACGIKPQSVTLIGGGARSEYWRQMLADISGQQLDYRTGGDVGPALGAARLAQIAANPEKSLIELLPQLPLEQSHLPDAQRYAAYQPRRETFRRLYQQLLPLMA | not soluble
